According to PMC10599630, “Human interleukin-12α and EBI3 are cytokines with anti-inflammatory functions” (Science Advances, 2023):

T1: recombinant human IL-12β^C199S (previously purified) (human, UniProt P29460 23-328, C199S)
T1 construct: human interleukin-12 subunit beta (IL-12β/p40), UniProt P29460, with C199S; it may be the same construct as m7; also called p40 C199S; source: previously purified in our laboratory
T1 sequence (looked up): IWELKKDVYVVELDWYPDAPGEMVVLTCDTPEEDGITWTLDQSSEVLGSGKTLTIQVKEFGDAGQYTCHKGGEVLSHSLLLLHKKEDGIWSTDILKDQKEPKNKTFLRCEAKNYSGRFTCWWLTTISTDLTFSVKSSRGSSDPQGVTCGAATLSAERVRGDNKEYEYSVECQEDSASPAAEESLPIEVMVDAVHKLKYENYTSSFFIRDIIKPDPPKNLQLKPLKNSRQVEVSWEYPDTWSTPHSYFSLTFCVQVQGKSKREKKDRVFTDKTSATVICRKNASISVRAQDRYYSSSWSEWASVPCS

T2: EBI3 (purified from Expi293) (human, UniProt Q14213 21-229)
T2 construct: human EBI3, UniProt Q14213; untagged; Untagged; pHEK293 ultra expression vector 1; also called recombinant human EBI3; source: Expi293, co-transfected with IL-27α^L162C,His
T2 sequence (looked up): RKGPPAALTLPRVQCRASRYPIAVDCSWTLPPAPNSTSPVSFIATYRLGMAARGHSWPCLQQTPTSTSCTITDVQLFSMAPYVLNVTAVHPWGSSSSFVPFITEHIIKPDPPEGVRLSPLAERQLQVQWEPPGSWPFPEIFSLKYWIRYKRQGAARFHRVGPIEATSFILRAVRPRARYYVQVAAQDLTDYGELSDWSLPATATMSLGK

B1: IL-12α^C96S,His (natural protein, human, UniProt P29459 23-219, looked up)
chain: RNLPVATPDPGMFPCLHHSQNLLRAVSNMLQKARQTLEFYPCTSEEIDHEDITKDKTSTVEACLPLELTKNESSLNSRETSFITNGSCLASRKTSFMMALCLSSIYEDLKMYQVEFKTMNAKLLMDPKRQIFLDQNMLAVIDELMQALNFNSETVPQKSSLEEPDFYKTKIKLCILLHAFRIRAVTIDRVMSYLNAS
notes: human interleukin-12 subunit alpha (IL-12α/p35), UniProt P29459, with C96S (the cysteine of the interchain disulfide bond of IL-12); C-terminal TEV cleavage site followed by a GG-linker and His-tag; pcDNA3.4TOPO vector; also called IL-12αC96S with His-tag; source: ExpiCHO, co-transfected with IL-12β^C199S; not shown: His-tag, C-terminal, kept
B2: murine IL-27α (natural protein, UniProt Q8K3I6 29-234, looked up)
chain: FPTDPLSLQELRREFTVSLYLARKLLSEVQGYVHSFAESRLPGVNLDLLPLGYHLPNVSLTFQAWHHLSDSERLCFLATTLRPFPAMLGGLGTQGTWTSSEREQLWAMRLDLRDLHRHLRFQVLAAGFKCSKEEEDKEEEEEEEEEEKKLPLGALGGPNQVSSQVSWPQLLYTYQLLHSLELVLSRAVRDLLLLSLPRRPGSAWDS
notes: mouse interleukin-27 subunit alpha (IL-27α/p28), bought recombinant protein; also called mIL-27α; source: bought: R&D Systems, 7430-ML-010

Experiments:
[1] = target: T1, recombinant human IL-12β^C199S …; assay: pull-down; called co-IP with purified proteins: 1 μg of one protein and an equimolar amount of the other in 200 μl PBS, 1 hour at room temperature; Ni-nitrilotriacetic acid beads 2 hours at 4°C; wash PBS with 20 mM imidazole, elution 500 mM imidazole; settings: both partners purified
[2] = target: T2, EBI3 (purified from Expi293); assay: as above; settings: both partners purified

Row | Binder | binding result [1] | binding result [2]
1 | B1 | binds | 
2 | B2 |  | binds
